Test [1] has as its target SARS-CoV-2 spike protein bearing furin mutation and truncation in retention sequence, on pseudovirus (SARS-CoV-2, UniProt P0DTC2 14-1255). Kind of test: cell-based or functional assay.
The target of test [2] is full soluble spike trimer of SARS-CoV-2 virus (stabilised, in-house) (SARS-CoV-2, UniProt P0DTC2 14-1208; P10104 458-484).
Test [3] concerns the target SARS-CoV-2 spike protein trimer stabilised by double proline (PP) mutation (FIG. 2B sequence) with C (SARS-CoV-2, UniProt P0DTC2 14-1208; P10104 458-484).

Changes are numbered by the printed parent chain.

B1: YANG-2302 (antibody, V domains shown)
VH: QVQLVQSGAEVRKPGASVKVSCKVSGYTLPELAIHWVRQAPGKGLEWMGGFIPEDGDTIYAQKFQGRVTMTEDTSTDTAYMDLTSLRSEDAAVYYCTSGWAAPGYNYGMAVWGQGTTVTVSS
VL: EVVLTQSPGTLSLSSGERATLSCRASQSVSSNYLAWYQKKPGQAPRLLIYGASSRVTGIPDRFGGSGSGTDFTLTISRLEPEDFAVYYCQQYDASPYSFGQGTKLDIK
B1: the “pseudovirus neutralisation IC50” value in test [1] amounted to 0.61 nM.

B2: IMPI-055 (antibody, V domains shown)
VH: QVQLVQSGAEVKKPGASVKVSCKASGYTFTSYDINWVRQATGQGLEWMGWMNPNSGNTGYAQKFQGRVTMTRDTSINTAYMELSSLRSEDTAVYFCARGGRYCSDVTCYSGEPFDYWGQGTLVTVSS
VL: EIMLTQSPDFQSVTPKEKVTITCRASQSIGSSLHWYQQKPDQSPKLLIKFASQSISGVPSRFSGSGSGTDFTLTINSLEAEDAAAYYCHQSSSLPHTFGPGTKVEIK
One may read the IC50 as the concentration that gives 50% inhibition. In test [2], B2 had a 50% inhibitory concentration (IC50) of 4.5 nM.

B3: IMPI-004 (antibody, V domains shown)
VH: QVQLVESGGGVVQPGRSLRLSCAASGFTFSSYGMHWVRQAPGKGLEWVAVIWYDGGNKYYADSVKGRFTISRDNSKNTLYLQMNSLRAEDTAVYYCARVNVLMGYGMDVWGQGTTVTVSS
VL: EIVLTQSPGTLSLSPGDKATLSCRASQSIISSFLAWYQQKPGQAPRLLIYGASSRATGIPDRFSGSGSGTDFTLTISRLEPEDFAVYYCQQYGSSLTFGGGTKVEIK
B3 displayed an IC50 in test [2] of 4.09 nM.

B4: IMPI-013 (antibody, V domains shown)
VH: EVQLVESGGGLVQPGRSLRLSCAASGFTFDDYAMHWVRQTPGKGLEWVSGISWNSGSIGYADSVKGRFTISRDNAKNSLYLQMNSLRAEDTALYYCTKDLGLGIGFYYGLDVWGQGTTVTVSS
VL: AIQMTQSPSSLSTSVGDRVTITCRASQGIRNDLGWYQLKPGKAPKLLIYDASTLQSGVPSRFSGSGSGTDFTLTISSLEPEDLATYYCLHHYTYPWTFGHGTKVELK
As usually defined, the Kd is the equilibrium constant for the complex coming apart. With B4, binding in test [3] was characterised by a dissociation constant (Kd) of 0.299 nM.

B5: IMPI-029 (antibody, V domains shown)
VH: EVQLVESGGGLIQPGGSLRLSCAASGVTVSSNYMNWVRQAPGKGLEWVSVIYSGGSTYYADSVKGRFTISRDNSKNTLFLQMNSLRAEDSAVYYCARDLGPYGVDVWGQGTTVTVSS
VL: DIQLTQSPSFLSASVGDRVTITCWASQGISSYLAWYQQKPGKAPKLLIYAASTLQSGVPSRFSGSGSGTEFTLTISSLQPEDFATYYCQELNSYPLTFGQGTRLEIK
As to B5, the IC50 in test [2] was determined as 3.31 nM.

B6: IMPI-047 (antibody, V domains shown)
VH: B5 VH with V27F, F79Y, A87T, S90T, G100V, P101A, V104M
VL: B5 VL with L46V, E90L, Y94N, Q100G, R103K, L104V
Consider B6, for which the midpoint of inhibition in test [2], the IC50, lay at 7.3 nM. This IC50 is about 2.2-fold higher than that of the molecule before.

B7: IMPI-037 (antibody, V domains shown)
VH: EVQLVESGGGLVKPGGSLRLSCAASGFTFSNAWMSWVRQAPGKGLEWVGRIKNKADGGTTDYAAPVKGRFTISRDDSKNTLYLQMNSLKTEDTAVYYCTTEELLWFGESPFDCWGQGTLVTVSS
VL: B5 VL with S30N, A84T, E90Q, L91F, S93D, L96R, Q100P, R103K, L104V
For B7, the midpoint of inhibition in test [2], the IC50, lay at 13.7 nM.

B8: IMPI-017 (antibody, V domains shown)
VH: B5 VH with S25A, V27L, A40V, F79Y, S90T, P101T, Y102L, V104M
VL: B5 VL with S31T, E90Q, P95L, L96P, R103K, L104V
B8: the IC50 in test [2] came out at 3.15 nM.

B9: IMPI-060 (antibody, V domains shown)
VH: B5 VH with N35S, Y58F, F79Y, S90T, G100S, P101Y, V104M
VL: B5 VL with R61K, E90Q, L96S, T97S, R103K
As for B9, the IC50 in test [2] was determined as 5.26 nM. Compared with the last molecule, the IC50 is about 1.7-fold higher.

B10: IMPI-005 (antibody, V domains shown)
VH: B5 VH with V27F
VL: B5 VL
B10: the concentration for half-maximal inhibition (IC50) in test [2] worked out at 13.1 nM.

B11: IMPI-056 (antibody, V domains shown)
VH: B5 VH with V27L, G44K, Y58F, K64R
VL: B5 VL with E90Q
B11 gave a concentration for half-maximal inhibition (IC50) in test [2] of 3.73 nM.

B12: YANG-2303 (antibody, V domains shown)
VH: QVQLVQSGAEVKKPGASVRVSCKVSGYTLPELAIHWVRQAPGKGLEWMGGFDPEDGETIYAQKFQGRVIMTEDTSTDTAYMDLSSLRSEDTAVYYCVKTWAAPGYNYGLDTWGQGTTVTVSS
VL: EIVLTQSPGILSLSPGESATLSCRASQSIASNYLAWFQQKPGQAPRLLIYGASSRAAGFPDRFSGSGSGTDFTLTIKRLEPEDSAVYYCQHYGSSPCSFGQGTNLEIK
With B12, the “pseudovirus neutralisation IC50” value in test [1] came to 0.48 nM.

B13: IMPI-054 (antibody, V domains shown)
VH: EVQLVESGGGLIQPGGSLRLSCAASGLTVSSNYMSWVRQAPGKGLEWVSIIYSGGSTYYADSVKGRFTISRDNSKNTLYLQMNSLRAEDTAVYYCARLGGYYYYGMDVWGQGTTVTVSS
VL: DIQMTQSPSSLSASVGERVTITCQASQDIRNYLNWYQKKPGKAPKLLIYDSSNLETGVPSRFSGSGSGTDFTFTISSLQPEDIATYYCQQYDNLPITFGQGTRLEIK
In test [2], B13 returned an IC50 of 11.6 nM.

B14: IMPI-059 (antibody, V domains shown)
VH: EVQLVESGGGLIQPGGSLRLSCAASGFTVSSIYMSWVRQAPGKGLEWVSIIYSRGSTDYADSVKGRFTISRDISKNTLYLQMNSLRAEDTAVYYCARDGTMVRGVHAFDIWGQGTMVTVSS
VL: DIQMTQSPPSLSASIGDRVTITCQASQDISNYLNWYQQKPGKAPKLLIYDASNLETGVPSRFSGSGSGTDFTLTISNLQPEDIVTYYCQQYDNLPSSFGQGTKLEIK
On to B14, for which the 50% inhibitory concentration (IC50) in test [2] amounted to 8.38 nM.

The record behind these values is patent US20250026813A1 (published 2025).
